The text below walks through data of paper PMC3089455.

A word on the stoichiometry N: it is the number of molecules, sites or subunits per partner or assembly.

Test [1] has as its target Aeromonas hydrophila AhQnr (Aeromonas hydrophila ATCC 7966). The test is described as follows: AUC.
Test [2] addresses AhQnr Δdouble deletion mutant (both loops removed) with C-terminal hexahistidine tag (Aeromonas hydrophila ATCC 7966). Description: SEC. For orientation: In gel filtration, larger molecules generally elute earlier.
Test [3] deals with AhQnr Δloop1 deletion mutant with C-terminal hexahistidine tag (Aeromonas hydrophila ATCC 7966). Description: SEC.
For test [4], the target named is AhQnr Δloop2 deletion mutant with C-terminal hexahistidine tag (Aeromonas hydrophila ATCC 7966). Description: SEC.

The substance “Aeromonas hydrophila AhQnr (natural protein)” gave a stoichiometry N in test [1] of 2.

“AhQnr Δdouble deletion mutant (both loops removed) with C-terminal hexahistidine tag (natural protein)” showed a stoichiometry N in test [2] of 2.

Consider “AhQnr Δloop1 deletion mutant with C-terminal hexahistidine tag (natural protein)”, for which the stoichiometry N in test [3] is 2.

With “AhQnr Δloop2 deletion mutant with C-terminal hexahistidine tag (natural protein)”, in test [4], the stoichiometry N is 2.
